From publication PMC2689706
pKd: −log10 of the molar value.

Molecular target: bacterially expressed GST-tagged eRF3 (UniProt P15170)
Assay: not stated; unpublished data; bacterially expressed GST-tagged eRF3 with partner translated in rabbit reticulocyte lysate

pKd	Substance
8.30	rabbit reticulocyte-lysate-translated PABPC1 (from UniProt P11940 1-636) (natural protein)
< 6.00	rabbit reticulocyte-lysate-translated hUpf1 (from UniProt Q92900 1-1129) (natural protein)
